Patent publication US11529425B2, “Immunoconjugates comprising signal regulatory protein alpha” (DINGFU BIOTARGET CO., LTD., priority 2017, dated 2022)

Tests used:
[1] = test system: A375 cell (expressing CD47) and A375-PD-L1 tumor cells (expressing both CD47 and PD-L1); experiment: Tumor binding in excess erythrocyte antigen sink, flow cytometry; settings: 15-fold excess of RBCs, FIG. 6a
Protocol: An important concern about CD47-based therapeutics is the expression of the target on the surface of erythrocyte, which has the potential to act as a large antigen sink and cause hematological toxicity. […] The binding of hu56di-SIRPα to tumor cell in excess human erythrocytes antigen sink was therefore assessed by flow cytometry. A375 cell (expressing CD47) and A375-PD-L1 tumor cells (expressing both CD47 and PD-L1) were mixed with a 15-fold excess of RBCs, and then incubated with 20 μg/ml hu56di-SIRPα, SIRPα-Fc IgG1 or AB6.12 IgG1 or isotype control (human IgG1) at 4° C. for 30 min. Then the cells were washed to remove unbound proteins and incubated with an anti-hlgG Fc gamma specific PE antibody at 4° C. for 20 min. The cells were analyzed by flow cytometry (Life Technology). The gate of erythrocytes was assessed by anti-human CD235a (eBiosciences Cat #12-9987-80).
Then the cells were washed to remove unbound proteins and incubated with an anti-hlgG Fc gamma specific PE antibody at 4° C. for 20 min. The cells were analyzed by flow cytometry (Life Technology). The gate of erythrocytes was assessed by anti-human CD235a (eBiosciences Cat #12-9987-80).

[2] = reported after being injected into human; cited from earlier work
human erythrocytes (RBC) = experiment: RBC binding in tumor cell / 15-fold excess RBC mix, flow cytometry; settings: tumor cells mixed with 15-fold excess of RBCs, 20 μg/ml, FIG. 6a-6e
[3] = reported in treated animal; cited from earlier work
RBC = experiment: Binding to fresh RBC diluted 2500 times, flow cytometry; settings: 20 μg ml^−1, FIG. 6f
Protocol: Similarly, fresh RBC cell was diluted 2500 times, then it was incubated with 20 μg ml^−1 isotype control (human IgG1), hu56di-SIRPα, hu56di-CV1, SIRPα-Fc IgG1 and AB6.12 IgG1, respectively. The results were shown in FIG. 6f, in which serial numbers of 1, 2, 3, 4 and 5 correspond to isotype control, hu56di-SIRPα, hu56di-CV1, SIRPα-Fc IgG1 and AB6.12 IgG1.

CD47-muFc = target: T1, CD47-muFc (Homo sapiens, UniProt Q08722); experiment: Binding kinetics by bio-layer inferometry (BLI), Octet K2
T1 construct: made in house; host or cells: transiently transfected FreeStyle 293F cells (HEK293)
T1 sequence (Q08722 with tags, fused parts or gaps): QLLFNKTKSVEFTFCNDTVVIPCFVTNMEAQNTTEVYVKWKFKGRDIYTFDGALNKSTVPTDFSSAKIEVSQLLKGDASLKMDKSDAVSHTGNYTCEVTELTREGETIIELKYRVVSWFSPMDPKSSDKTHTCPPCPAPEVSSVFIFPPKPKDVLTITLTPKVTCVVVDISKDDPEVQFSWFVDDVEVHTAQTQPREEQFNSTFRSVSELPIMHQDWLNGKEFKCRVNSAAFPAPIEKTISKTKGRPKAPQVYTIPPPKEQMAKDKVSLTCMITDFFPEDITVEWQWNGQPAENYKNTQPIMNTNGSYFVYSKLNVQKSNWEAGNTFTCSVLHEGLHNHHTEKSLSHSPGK
From the text: The amino acid sequence of the human CD47 extracellular domain (i.e., the 19th residue to the 141th residue in Q08722) was obtained according to the amino acid sequence of human CD47 (Q08722) in the protein database Uniprot. According to the amino acid sequence of the constant region of murine immunoglobulin gamma1 (P01868) in the protein database Uniprot, the amino acid sequence of muFc (i.e., the 112th residue to the 213th residue in P01868) was obtained. The DNAworks Online Tool (helixweb.nih.gov) was used to design the corresponding coding DNA sequence to obtain the CD47-muFc fusion protein gene, and the DNA fragment was obtained by artificial synthesis. The synthetic gene sequences were cloned into commercial vector pcDNA4/myc-HisA (Invitrogen, V863-20) by Fermentas HindIII and EcoRI. The recombinant plasmids were then sequenced for confirmation, thereby obtaining the plasmid DNA of pcDNA4-CD47-muFc. The amino acid sequences of CD47-muFc is as set forth in SEQ ID NO: 61, and the polynucleotide sequence encoding it is as set forth in SEQ ID NO: 62.
Binding kinetics of a hu56di-SIRPα immunoconjugate or control antibodies (SIRPα-Fc IgG1 and AB6.12 IgG1) were determined by the bio-layer inferometry (BLI) method using Octet K2 system (FortéBio). All experiments were performed at 25° C. under a PBS buffer containing 0.5% BSA and 0.5% Tween 20, pH 7.2. CD47-muFc was immobilized onto AHC Biosensors, which were subsequently used in association (with hu56di-SIRPα, SIRPα-Fc IgG1 or AB6.12 IgG1) and dissociation measurements each performed for a time window of 40 seconds and 300 seconds, respectively. After the above steps, the subtracted binding interference data were applied to the calculations of binding constants using the FortéBio analysis software provided with the instrument.

mouse RBCs = experiment: Mouse RBC binding, MC38 tumor cells mixed with 15-fold excess of mouse RBCs; settings: MC38 cells with 15-fold excess of mouse RBCs, 20 μg/ml, FIG. 6g/6h
Protocol: Similarly, MC38 tumor cells were mixed with a 15-fold excess of mouse RBCs, and then incubated with 20 μg/ml, a-mPD-L1, mSIRPα-Fc, CV1-Fc, mPD-L1-CV1, mPD-L1-mSIRPα or isotype control (human IgG1) at 4° C. for 30 min. Then the cells were washed to remove unbound proteins and incubated with an anti-hlgG Fc gamma specific PE antibody at 4° C. for 20 min. The cells were analyzed by flow cytometry (Life Technology). The gate of erythrocytes was assessed by anti-mouse RBC antibody (abcam Cat #ab106101). In FIG. 6g, serial numbers of 1, 2, 3 and 4 correspond to isotype control (human IgG1), mSIRPα-Fc, a-mPD-L1 and mPD-L1-mSIRPα. In FIG. 6h, serial numbers of 1, 2, 3 and 4 correspond to isotype control (human IgG1), CV1-Fc, a-mPD-L1 and mPD-L1-CV1.

Substance | preference of binding, tumor cells versus RBC [1] | thrombocytopenia [2] | binding to RBC (MFI) (human erythrocytes (RBC)) | anemia [3] | binding to RBC (RBC) | binding affinity to CD47 (comparison in words) (CD47-muFc; Table 6) | kon (CD47-muFc; association 40 seconds, 25° C.) | kdis (CD47-muFc; dissociation 300 seconds, 25° C.) | binding to mouse RBC (mouse RBCs)
SIRPα-Fc IgG1: reference homodimer: human SIRPα fused via peptide linker to human IgG1 Fc, SEQ ID NO: 69 | bound tumor cells and RBCs at the same time | induced thrombocytopenia | bind to RBC | anemia has been reported | weaker binding to RBC than hu56di-CV1 and AB6.12 IgG1 | comparable binding affinity to CD47 | 650000 M⁻¹ s⁻¹ | 0.00377 s⁻¹ | 
mSIRPα-Fc: mouse SIRPα fused via linker to human IgG1-Fc, SEQ ID NO: 152, Group 18 |  |  |  |  |  |  |  |  | weaker binding to RBC than mPD-L1-CV1
